We go through five molecules from patent US20200276302A1 (OSAKA UNIVERSITY, published 2020).

Experiment [1] has as its target soluble mouse PlexinA1 protein (mouse, UniProt P70206 28-1242). The experiment is described as follows: BLI (OctetRED384), antibody on Protein G biosensor, mouse PlexinA1 at 260 nM. The method, then:
Note that the L chains of the antibodies derived from the human antibody naive library were not chimerized.
Specifically, the antibodies adjusted to 10 µg/mL by 10× diluted HBS-EP+(GE healthcare, BR-1006-69) were immobilized onto Protein G biosensors (ForteBIO), and human and mouse PlexinA1 adjusted to 260 nM with HBS-EP+ were applied thereto. The Protein G biosensors were regenerated using 10 mmol/L Glycine-HCl, pH 1.5 (GE Healthcare, BR-1003-54). After the measurement, analytical software Data analysis 7.0 (ForteBIO) was used to compute amounts of binding (FIG. 5). […] In FIG. 5, the vertical axis represents amounts of binding to human and mouse PlexinA1.

The target of experiment [2] is T1, mouse PlexinA1 recombinant protein expressed on Ba/F3 cells (mouse, UniProt P70206 25-1290).
T1 construct: also called Mouse PlexinA1/BaF3; mouse PlexinA1-expressing cell line
T1 sequence (P70206 other isoform, or with tags, fused parts or gaps limits assumed): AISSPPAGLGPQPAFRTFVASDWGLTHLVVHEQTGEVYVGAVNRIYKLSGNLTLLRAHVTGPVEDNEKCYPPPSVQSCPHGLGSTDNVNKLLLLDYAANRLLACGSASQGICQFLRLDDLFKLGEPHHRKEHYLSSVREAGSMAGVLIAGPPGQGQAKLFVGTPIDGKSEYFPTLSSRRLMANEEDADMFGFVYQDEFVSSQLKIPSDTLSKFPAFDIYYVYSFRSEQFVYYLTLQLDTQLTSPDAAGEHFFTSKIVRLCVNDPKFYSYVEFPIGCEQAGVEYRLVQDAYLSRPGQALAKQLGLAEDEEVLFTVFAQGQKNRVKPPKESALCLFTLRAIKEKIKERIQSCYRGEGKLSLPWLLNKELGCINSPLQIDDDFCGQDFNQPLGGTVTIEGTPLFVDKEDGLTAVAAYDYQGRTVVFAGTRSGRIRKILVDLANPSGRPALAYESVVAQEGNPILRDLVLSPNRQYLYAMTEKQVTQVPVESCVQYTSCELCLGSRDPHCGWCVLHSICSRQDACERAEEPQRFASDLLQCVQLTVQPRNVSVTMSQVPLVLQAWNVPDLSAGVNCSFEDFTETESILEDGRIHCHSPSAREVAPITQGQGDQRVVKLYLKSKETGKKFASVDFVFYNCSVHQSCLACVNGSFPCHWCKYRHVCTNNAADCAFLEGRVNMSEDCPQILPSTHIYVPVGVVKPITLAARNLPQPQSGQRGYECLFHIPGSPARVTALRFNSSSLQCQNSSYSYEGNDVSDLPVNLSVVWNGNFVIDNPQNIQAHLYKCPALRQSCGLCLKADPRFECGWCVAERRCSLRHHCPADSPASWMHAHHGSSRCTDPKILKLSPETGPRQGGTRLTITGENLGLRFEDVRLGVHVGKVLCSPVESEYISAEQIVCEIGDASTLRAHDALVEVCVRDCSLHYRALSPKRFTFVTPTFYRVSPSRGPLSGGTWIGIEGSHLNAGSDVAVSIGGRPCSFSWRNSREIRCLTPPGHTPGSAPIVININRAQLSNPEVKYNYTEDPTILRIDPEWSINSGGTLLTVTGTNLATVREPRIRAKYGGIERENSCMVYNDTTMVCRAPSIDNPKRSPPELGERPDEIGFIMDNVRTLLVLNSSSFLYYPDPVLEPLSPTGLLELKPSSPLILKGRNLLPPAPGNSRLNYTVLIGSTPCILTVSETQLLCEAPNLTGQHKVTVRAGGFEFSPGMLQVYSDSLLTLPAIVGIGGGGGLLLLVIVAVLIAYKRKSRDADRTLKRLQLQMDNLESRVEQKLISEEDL
The experiment is described as follows: cell ELISA on mouse PlexinA1-expressing Ba/F3 cells against Ba/F3 cells. As to the method:
The antibodies obtained above were subjected to cell ELISA by the following procedure. Initially, 384-well plates were prepared, and mouse PlexinA1-expressing Ba/F3 cells and Ba/F3 cells (see Example 11) were each captured onto the bottom of different wells. After washing each well of the plates with PBS, the prepared antibodies were added at 20 μL/well, and the mixture was allowed to stand at room temperature for 1 hour. Then, each well was washed with 0.05% Tween 20-PBS, HRP-labeled anti-rabbit IgG antibody (Betyl, A120-101P) diluted 10000 times with 2% FBS-PBS was added at 20 μL/well, and the mixture was allowed to stand at room temperature for 1 hour. After washing each well of the plates with 0.05% Tween 20-PBS, the substrate solution (ABTS peroxidase substrate system) was dispensed at 20 μL/well to develop color for 1 hour at room temperature. Then, binding of the antibodies to mouse PlexinA1 was confirmed by measuring absorbance at 405 nm using SpectraMax from Molecular Devices, LLC.
Background: ELISA stands for enzyme-linked immunosorbent assay.

soluble mouse PlexinA1 protein, sequence (P70206 other isoform, or with tags, fused parts or gaps limits assumed): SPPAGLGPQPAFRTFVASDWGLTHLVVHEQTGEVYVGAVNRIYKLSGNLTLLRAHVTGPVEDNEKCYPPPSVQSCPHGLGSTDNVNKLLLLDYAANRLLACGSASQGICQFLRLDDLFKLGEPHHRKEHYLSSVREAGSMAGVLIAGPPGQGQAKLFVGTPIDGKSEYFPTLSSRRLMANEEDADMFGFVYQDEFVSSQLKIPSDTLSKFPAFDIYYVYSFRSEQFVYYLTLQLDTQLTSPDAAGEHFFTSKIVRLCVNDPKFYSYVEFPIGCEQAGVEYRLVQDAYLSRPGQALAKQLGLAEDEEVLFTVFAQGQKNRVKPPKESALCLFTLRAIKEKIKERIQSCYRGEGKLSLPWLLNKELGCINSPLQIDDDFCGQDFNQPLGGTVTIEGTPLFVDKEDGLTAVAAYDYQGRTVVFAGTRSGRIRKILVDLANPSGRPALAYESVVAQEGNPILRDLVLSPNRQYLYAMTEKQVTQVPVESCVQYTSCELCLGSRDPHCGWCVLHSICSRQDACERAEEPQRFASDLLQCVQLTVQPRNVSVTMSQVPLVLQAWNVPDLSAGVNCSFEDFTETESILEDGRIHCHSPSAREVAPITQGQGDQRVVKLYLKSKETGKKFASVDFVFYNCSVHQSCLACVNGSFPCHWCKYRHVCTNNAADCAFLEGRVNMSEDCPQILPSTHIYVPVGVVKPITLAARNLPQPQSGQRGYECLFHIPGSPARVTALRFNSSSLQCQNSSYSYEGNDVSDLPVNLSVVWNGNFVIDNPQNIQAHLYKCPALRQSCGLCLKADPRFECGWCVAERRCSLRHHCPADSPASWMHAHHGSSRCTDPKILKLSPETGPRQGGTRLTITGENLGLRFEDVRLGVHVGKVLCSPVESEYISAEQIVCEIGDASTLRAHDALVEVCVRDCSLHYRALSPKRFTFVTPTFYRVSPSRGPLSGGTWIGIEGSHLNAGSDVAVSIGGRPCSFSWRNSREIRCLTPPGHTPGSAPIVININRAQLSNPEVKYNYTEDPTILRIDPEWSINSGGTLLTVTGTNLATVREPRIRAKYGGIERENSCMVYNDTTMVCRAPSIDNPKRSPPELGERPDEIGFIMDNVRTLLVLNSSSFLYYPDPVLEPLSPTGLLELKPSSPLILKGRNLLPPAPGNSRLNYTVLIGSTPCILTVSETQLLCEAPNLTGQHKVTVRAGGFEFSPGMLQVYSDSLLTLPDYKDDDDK

B1: mouse chimeric human/mouse cross-reactive PlexinA1 antibody 359B2-2-3-6-mFc (antibody, mouse IgG2a, lambda, V domains shown)
VH: QVQLVQSGAEVKKPGASVKVSCKASGYTFTSYYMHWVRQAPGQGLEWMGIINPSGGSTSYAQKFQGRVTMTRDTSTSTVYMELSSLRSEDTAVYYCARAPGHYYYGMDVWGQGTTVTVSS
VL: SYELTQPPSVSVSPGQTASITCSGDKLEDKYASWYQLKPGHSPVLVIYQDSKRPSGIPERFSGSNSGNTATLTISGTQAMDEADYYCRAWDSNTGDVVFGGGTKLTVLR
notes: Mouse IgG2a heavy chain constant region; human light chain kept
As for B1, the binding result in experiment [1] is “binds”.

B2: mouse chimeric anti-mouse PlexinA1 antibody PXB361b-mFc (antibody, mouse IgG1, kappa)
heavy: QSLEESGGDLVKPEGSLTLSCTASGFTISSSYWICWVRQAPGKGLEWIACIYVGSGDGYTYYASWAKGRFTISKTSSTTVTLRMTSLTAADTATYFCARGGDGGVGGFDFFDPWGPGTLVTVSSAKTTPPSVYPLAPGSAAQTNSMVTLGCLVKGYFPEPVTVTWNSGSLSSGVHTFPAVLQSDLYTLSSSVTVPSSTWPSETVTCNVAHPASSTKVDKKIVPRDCGCKPCICTVKEVSKVFIFPPKPKDVLTITLTPKVTCVVVDISKDDPEVQFSWFVDDVEVHTAQTQPREEQFNSTFRSVSELPIMHQDWLNGKEFKCRVNSAAFPAPIEKTISKTKGRPKAPQVYTIPPPKEQMAKDKVSLTCMITDFFPEDITVEWQWNGQPAENYKNTQPIMDTDGSYFVYSKLNVQKSNWEAGNTFTCSVLHEGLHNHHTEKSLSHSPGK
light: DVVLTQTPASVSEPVGGTVTIKCQATESINRNCAWYQQKPGQPPKLLIYRASTLASGVPSRFKGSGSGTEFTLTISDLECADAATYYCQCTDYGTYYVAFGGGTEVVVKRADAAPTVSIFPPSSEQLTSGGASVVCFLNNFYPKDINVKWKIDGSERQNGVLNSWTDQDSKDSTYSMSSTLTLTKDEYERHNSYTCEATHKTSTSPIVKSFNRNEC
notes: Rabbit variable regions on mouse IgG1 heavy and mouse light chain constant regions; Antagonist antibody
Turning to B2, the binding result in experiment [1] was “binds”.

B3: anti-mouse PlexinA1 antibody PXB361b (antibody)
heavy: QSLEESGGDLVKPEGSLTLSCTASGFTISSSYWICWVRQAPGKGLEWIACIYVGSGDGYTYYASWAKGRFTISKTSSTTVTLRMTSLTAADTATYFCARGGDGGVGGFDFFDPWGPGTLVTVSSGQPKAPSVFPLAPCCGDTPSSTVTLGCLVKGYLPEPVTVTWNSGTLTNGVRTFPSVRQSSGLYSLSSVVSVTSSSQPVTCNVAHPATNTKVDKTVAPSTCSKPMCPPPELLGGPSVFIFPPKPKDTLMISRTPEVTCVVVDVSQDDPEVQFTWYINNEQVRTARPPLREQQFNSTIRVVSTLPIAHQDWLRGKEFKCKVHNKALPAPIEKTISKARGQPLEPKVYTMGPPREELSSRSVSLTCMINGFYPSDISVEWEKNGKAEDNYKTTPTVLDSDGSYFLYSKLSVPTSEWQRGDVFTCSVMHEALHNHYTQKSISRSPGK
light: DVVLTQTPASVSEPVGGTVTIKCQATESINRNCAWYQQKPGQPPKLLIYRASTLASGVPSRFKGSGSGTEFTLTISDLECADAATYYCQCTDYGTYYVAFGGGTEVVVKGDPVAPTVLIFPPAADQVATGTVTIVCVANKYFPDVTVTWEVDGTTQTTGIENSKTPQNSADCTYNLSSTLTLTSTQYNSHKEYTCKVTQGTTSVVQSFNRGDC
notes: Antagonist antibody
Consider B3, for which the binding result in experiment [2] is “binds”.

B4: anti-mouse PlexinA1 antibody PXB693 (antibody)
heavy: QSVEESGGRLVTPGTPLTLTCTVSGFSLSSSAMTWVRQAPGKGLEWIGIINNSNIAAYASWTKGRFTISKTSTTVDLKITSPIIEDTATYFCARGDVGTTHYFNIWGPGTLVTVSSGQPKAPSVFPLAPCCGDTPSSTVTLGCLVKGYLPEPVTVTWNSGTLTNGVRTFPSVRQSSGLYSLSSVVSVTSSSQPVTCNVAHPATNTKVDKTVAPSTCSKPMCPPPELLGGPSVFIFPPKPKDTLMISRTPEVTCVVVDVSQDDPEVQFTWYINNEQVRTARPPLREQQFNSTIRVVSTLPIAHQDWLRGKEFKCKVHNKALPAPIEKTISKARGQPLEPKVYTMGPPREELSSRSVSLTCMINGFYPSDISVEWEKNGKAEDNYKTTPTVLDSDGSYFLYSKLSVPTSEWQRGDVFTCSVMHEALHNHYTQKSISRSPGK
light: AAVLTQTPSPVSAVVGGTVSISCQSSKSVYNNNWLSWFQQKPGQPPKLLIYGASTLASGVPSRFKGSGSGTQFTLAISDVQCDDAATYYCAGGYINSDNFAFGGGTEVVVKGDPVAPTVLIFPPAADQVATGTVTIVCVANKYFPDVTVTWEVDGTTQTTGIENSKTPQNSADCTYNLSSTLTLTSTQYNSHKEYTCKVTQGTTSVVQSFNRGDC
Consider B4, for which the binding result in experiment [2] is reported as “binds”.

B5: mouse chimeric anti-mouse PlexinA1 antibody PXB693-mFc (antibody, mouse IgG2a, kappa)
heavy: QSVEESGGRLVTPGTPLTLTCTVSGFSLSSSAMTWVRQAPGKGLEWIGIINNSNIAAYASWTKGRFTISKTSTTVDLKITSPIIEDTATYFCARGDVGTTHYFNIWGPGTLVTVSSAKTTAPSVYPLAPVCGDTTGSSVTLGCLVKGYFPEPVTLTWNSGSLSSGVHTFPAVLQSDLYTLSSSVTVTSSTWPSQSITCNVAHPASSTKVDKKIEPRGPTIKPCPPCKCPAPNLRRGPKVFIFPPKIKDVLMISLSPIVTCVVVDVSEDDPDVQISWFVNNVEVHTAQTQTHREDYNSTLRVVSALPIQHQDWMSGKEFKCKVNNKDLPAPIERTISKPKGSVRAPQVYVLPPPEEEMTKKQVTLTCMVTDFMPEDIYVEWTNNGKTELNYKNTEPVLDSDGSYFMYSKLRVEKKNWVERNSYSCSVVHEGLHNHHTTKSFSRTPGK
light: AAVLTQTPSPVSAVVGGTVSISCQSSKSVYNNNWLSWFQQKPGQPPKLLIYGASTLASGVPSRFKGSGSGTQFTLAISDVQCDDAATYYCAGGYINSDNFAFGGGTEVVVKRADAAPTVSIFPPSSEQLTSGGASVVCFLNNFYPKDINVKWKIDGSERQNGVLNSWTDQDSKDSTYSMSSTLTLTKDEYERHNSYTCEATHKTSTSPIVKSFNRNEC
notes: Rabbit variable regions on mouse IgG2a heavy and mouse light chain constant regions; Agonist antibody
For the molecule B5, the binding result in experiment [1] is “binds”.
